In publication PMC6355197 one finds stoichiometry N data, which are given here for one substance.

For the experiment, the target named is afTMEM16 scramblase from Aspergillus fumigatus (Aspergillus fumigatus). The experiment can be described thus: cryo-EM structure; afTMEM16 in MSP1E3 nanodiscs of 3 POPE:1 POPG; three samples: 0.5 mM Ca2+, Ca2+-free (5 mM EDTA), 0.5 mM Ca2+ with 5 mole% C24:0 ceramide; buffer D (150 mM KCl, 50 mM Tris pH 8.0); maps refined in C1 and C2.

In turn, “afTMEM16 scramblase from Aspergillus fumigatus (natural protein)” registered a stoichiometry N of 2.

Broadly, the stoichiometry N is a count of units in the complex or per binding partner.
